Results taken from patent US20050282743A1, “Molecular interactions in cells” (Arbor Vita Corporation, priority 2001, published 2005).
Ends that are not written are not given here. Peptide text beside a SMILES is read from it. * marks the point of attachment. Biotin = O=C1N[C@H]2[C@H](CS[C@H]2CCCCC(=O)*)N1

Key:
Assay in all cases: G' assay (10 uM PL peptide), results of TABLE 7 and TABLE 12
Type in all cases: binding
[1] = biological target: T1, PDZ protein (GST-PDZ fusion) (Homo sapiens, UniProt P29475); conditions: PDZ NOS1, PDZ Domain 1
T1 construct: made in house; host or cells: E. coli (DH5alpha, BL21 or JM109)
In short: (§1)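 Biotin-PL peptide (N-term label), 10 uM vs GST-PDZ; protein 5 ug/ml by default. A450 nm binned: 1 = 0-1, 2 = 1-2, 3 = 2-3, 4 = 3-4, 5 = >4 on >2 repeats, 0 = no binding.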

[2] = biological target: T2, PDZ protein (GST-PDZ fusion) (Homo sapiens, UniProt Q9NSN8); conditions: PDZ Syntrophin gamma-1, PDZ Domain 1
T2 construct: made in house; host or cells: E. coli (DH5alpha, BL21 or JM109)
T2 sequence (Q9NSN8 1-517): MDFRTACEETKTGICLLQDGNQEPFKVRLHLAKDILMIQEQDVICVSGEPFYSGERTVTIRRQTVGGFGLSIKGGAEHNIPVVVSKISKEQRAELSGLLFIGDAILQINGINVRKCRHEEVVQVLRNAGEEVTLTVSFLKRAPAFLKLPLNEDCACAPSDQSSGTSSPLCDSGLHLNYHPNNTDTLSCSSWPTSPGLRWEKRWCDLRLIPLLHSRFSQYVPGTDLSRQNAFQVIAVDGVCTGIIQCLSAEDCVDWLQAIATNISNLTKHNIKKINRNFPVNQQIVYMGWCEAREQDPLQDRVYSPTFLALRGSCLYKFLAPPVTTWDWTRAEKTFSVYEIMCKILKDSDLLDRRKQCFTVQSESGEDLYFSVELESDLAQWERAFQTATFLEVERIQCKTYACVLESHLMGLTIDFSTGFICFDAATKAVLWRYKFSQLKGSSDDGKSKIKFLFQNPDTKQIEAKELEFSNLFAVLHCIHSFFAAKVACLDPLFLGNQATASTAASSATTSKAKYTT
In short: as §1

[3] = biological target: T3, PDZ protein (GST-PDZ fusion) (Homo sapiens, UniProt O14745)
T3 construct: made in house; host or cells: E. coli (DH5alpha, BL21 or JM109)
T3 sequence (O14745 1-358): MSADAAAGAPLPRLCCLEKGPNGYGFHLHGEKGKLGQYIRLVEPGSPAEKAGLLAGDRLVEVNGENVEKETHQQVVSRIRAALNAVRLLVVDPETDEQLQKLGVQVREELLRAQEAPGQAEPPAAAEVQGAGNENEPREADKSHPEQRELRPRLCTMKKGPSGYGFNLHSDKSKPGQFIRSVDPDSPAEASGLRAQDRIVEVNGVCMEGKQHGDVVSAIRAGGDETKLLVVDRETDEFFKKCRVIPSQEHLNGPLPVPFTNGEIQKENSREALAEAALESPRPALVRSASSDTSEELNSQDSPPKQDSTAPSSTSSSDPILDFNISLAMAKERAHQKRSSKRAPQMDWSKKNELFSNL
In short: as §1

[4] = biological target: T4, PDZ protein (GST-PDZ fusion) (Homo sapiens, UniProt Q9BYB0); conditions: PDZ SHANK3, PDZ Domain 1
T4 construct: made in house; host or cells: E. coli (DH5alpha, BL21 or JM109)
In short: as §1

[5] = biological target: T5, PDZ protein (GST-PDZ fusion) (Homo sapiens, UniProt Q9HD26); conditions: PDZ PIST, PDZ Domain 1
T5 construct: made in house; host or cells: E. coli (DH5alpha, BL21 or JM109)
In short: as §1

[6] = biological target: T6, PDZ protein (GST-PDZ fusion) (Homo sapiens, UniProt P50479); conditions: PDZ LIM RIL, PDZ Domain 1
T6 construct: made in house; host or cells: E. coli (DH5alpha, BL21 or JM109)
T6 sequence (P50479 1-330): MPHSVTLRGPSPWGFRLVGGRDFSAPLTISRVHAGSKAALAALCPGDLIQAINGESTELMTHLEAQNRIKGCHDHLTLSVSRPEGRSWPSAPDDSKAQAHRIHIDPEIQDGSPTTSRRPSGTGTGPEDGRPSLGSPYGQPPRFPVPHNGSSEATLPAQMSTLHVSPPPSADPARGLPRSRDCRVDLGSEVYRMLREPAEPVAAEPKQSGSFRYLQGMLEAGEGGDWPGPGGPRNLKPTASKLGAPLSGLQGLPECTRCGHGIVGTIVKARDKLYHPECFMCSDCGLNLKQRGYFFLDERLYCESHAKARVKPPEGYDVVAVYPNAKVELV
In short: as §1

T4 sequence (Q9BYB0 whole entry, the tested form may be a part): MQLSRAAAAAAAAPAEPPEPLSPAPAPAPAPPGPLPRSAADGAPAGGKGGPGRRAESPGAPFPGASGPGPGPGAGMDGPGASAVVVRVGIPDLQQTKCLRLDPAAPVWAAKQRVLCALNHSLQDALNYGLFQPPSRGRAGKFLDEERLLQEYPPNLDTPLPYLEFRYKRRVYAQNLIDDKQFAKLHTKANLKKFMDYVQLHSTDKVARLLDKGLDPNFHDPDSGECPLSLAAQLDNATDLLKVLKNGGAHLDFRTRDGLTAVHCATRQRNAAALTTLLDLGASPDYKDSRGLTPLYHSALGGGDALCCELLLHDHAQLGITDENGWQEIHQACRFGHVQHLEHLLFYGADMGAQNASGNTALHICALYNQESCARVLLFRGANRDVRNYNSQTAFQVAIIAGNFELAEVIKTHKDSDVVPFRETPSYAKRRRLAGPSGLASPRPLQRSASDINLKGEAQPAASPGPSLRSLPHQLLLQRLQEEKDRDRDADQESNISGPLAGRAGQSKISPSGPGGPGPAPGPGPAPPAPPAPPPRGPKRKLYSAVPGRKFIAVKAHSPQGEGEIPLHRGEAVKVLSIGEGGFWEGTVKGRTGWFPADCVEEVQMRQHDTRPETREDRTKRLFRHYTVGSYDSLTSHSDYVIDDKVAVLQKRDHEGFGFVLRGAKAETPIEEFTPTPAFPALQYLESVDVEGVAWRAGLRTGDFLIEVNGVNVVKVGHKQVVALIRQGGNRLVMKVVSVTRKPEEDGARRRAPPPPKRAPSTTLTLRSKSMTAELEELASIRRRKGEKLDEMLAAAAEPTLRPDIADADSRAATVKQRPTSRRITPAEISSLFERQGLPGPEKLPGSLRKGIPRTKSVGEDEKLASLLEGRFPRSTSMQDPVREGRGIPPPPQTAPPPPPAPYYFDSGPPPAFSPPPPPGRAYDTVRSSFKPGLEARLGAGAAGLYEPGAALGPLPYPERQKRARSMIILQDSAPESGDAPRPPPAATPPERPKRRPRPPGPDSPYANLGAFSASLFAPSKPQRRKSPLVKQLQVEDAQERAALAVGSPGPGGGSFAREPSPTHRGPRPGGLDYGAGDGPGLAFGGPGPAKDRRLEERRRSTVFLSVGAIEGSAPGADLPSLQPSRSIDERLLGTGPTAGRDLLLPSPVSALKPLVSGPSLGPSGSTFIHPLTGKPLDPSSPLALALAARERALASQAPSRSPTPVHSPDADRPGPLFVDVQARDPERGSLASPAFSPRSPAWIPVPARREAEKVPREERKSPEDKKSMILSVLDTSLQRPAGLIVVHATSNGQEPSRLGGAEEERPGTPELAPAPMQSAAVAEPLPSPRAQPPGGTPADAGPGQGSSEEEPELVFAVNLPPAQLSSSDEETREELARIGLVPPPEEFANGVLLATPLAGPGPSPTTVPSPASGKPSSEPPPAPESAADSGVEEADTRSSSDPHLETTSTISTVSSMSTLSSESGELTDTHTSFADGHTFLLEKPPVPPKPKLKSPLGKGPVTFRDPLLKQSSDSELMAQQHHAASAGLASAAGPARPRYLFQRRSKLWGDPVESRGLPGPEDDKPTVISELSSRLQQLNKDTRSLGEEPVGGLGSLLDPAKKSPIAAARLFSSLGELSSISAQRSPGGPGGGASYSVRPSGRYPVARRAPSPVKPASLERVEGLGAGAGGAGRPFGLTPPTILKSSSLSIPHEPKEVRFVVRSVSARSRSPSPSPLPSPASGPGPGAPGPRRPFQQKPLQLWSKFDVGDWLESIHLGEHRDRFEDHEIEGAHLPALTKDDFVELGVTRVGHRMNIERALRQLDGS
T1 sequence (P29475 whole entry, the tested form may be a part): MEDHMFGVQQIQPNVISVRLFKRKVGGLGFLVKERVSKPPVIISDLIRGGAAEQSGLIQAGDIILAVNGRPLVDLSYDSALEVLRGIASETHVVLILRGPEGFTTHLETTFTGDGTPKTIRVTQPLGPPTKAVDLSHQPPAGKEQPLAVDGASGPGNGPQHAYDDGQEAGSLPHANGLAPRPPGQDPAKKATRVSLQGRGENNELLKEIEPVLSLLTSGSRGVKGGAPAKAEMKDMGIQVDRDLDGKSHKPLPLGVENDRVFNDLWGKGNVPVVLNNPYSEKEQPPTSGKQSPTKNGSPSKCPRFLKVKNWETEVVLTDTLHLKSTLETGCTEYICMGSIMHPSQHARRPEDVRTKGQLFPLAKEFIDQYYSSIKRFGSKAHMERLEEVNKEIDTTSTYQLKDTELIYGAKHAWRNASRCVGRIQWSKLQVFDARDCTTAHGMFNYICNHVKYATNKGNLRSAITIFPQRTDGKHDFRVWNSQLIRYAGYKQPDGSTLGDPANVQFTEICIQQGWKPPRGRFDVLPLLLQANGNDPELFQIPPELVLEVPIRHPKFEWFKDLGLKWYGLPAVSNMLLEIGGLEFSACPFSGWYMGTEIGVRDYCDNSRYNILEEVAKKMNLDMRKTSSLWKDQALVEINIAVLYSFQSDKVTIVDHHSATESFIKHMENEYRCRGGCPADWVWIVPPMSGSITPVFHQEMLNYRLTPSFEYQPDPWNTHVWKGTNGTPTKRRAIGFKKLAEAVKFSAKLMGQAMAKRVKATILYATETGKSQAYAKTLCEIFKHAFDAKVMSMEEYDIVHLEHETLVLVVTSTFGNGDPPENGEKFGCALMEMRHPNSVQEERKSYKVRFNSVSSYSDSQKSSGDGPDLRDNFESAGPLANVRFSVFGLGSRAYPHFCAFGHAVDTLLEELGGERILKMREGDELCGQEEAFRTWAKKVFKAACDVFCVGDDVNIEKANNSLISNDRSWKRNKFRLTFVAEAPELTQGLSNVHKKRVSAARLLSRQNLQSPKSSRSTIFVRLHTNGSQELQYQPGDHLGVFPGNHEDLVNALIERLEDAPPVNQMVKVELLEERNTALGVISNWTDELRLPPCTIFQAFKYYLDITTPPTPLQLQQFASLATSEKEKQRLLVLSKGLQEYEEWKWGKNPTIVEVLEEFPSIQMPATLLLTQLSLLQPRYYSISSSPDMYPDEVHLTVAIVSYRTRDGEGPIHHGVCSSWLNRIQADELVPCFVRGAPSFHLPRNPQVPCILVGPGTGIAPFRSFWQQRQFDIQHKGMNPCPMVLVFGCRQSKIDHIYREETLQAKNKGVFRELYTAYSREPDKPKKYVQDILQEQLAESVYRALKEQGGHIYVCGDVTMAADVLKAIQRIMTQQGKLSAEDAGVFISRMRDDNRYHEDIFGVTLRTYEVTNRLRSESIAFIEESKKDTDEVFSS

CC[C@H](C)[C@H](NC(=O)[C@H](Cc1ccc(O)cc1)NC(=O)[C@H](CC(C)C)NC(=O)[C@H](CCC(N)=O)NC(=O)[C@H](Cc1c[nH]cn1)NC(=O)[C@H](CO)NC(=O)[C@H](C)NC(=O)[C@H](CC(C)C)NC(=O)[C@@H](NC(=O)[C@H](CC(=O)O)NC(=O)[C@H](CCSC)NC(=O)[C@H](Cc1ccccc1)NC(=O)[C@@H]1CCCN1C(=O)[C@H](CCCNC(=N)N)NC(=O)[C@@H](NC(=O)[C@H](CC(C)C)NC(=O)[C@H](CC(N)=O)NC(=O)[C@H](CC(=O)O)NC(=O)[C@@H](NC(=O)[C@H](CO)NC(=O)CCCC[C@@H]1SC[C@@H]2NC(=O)N[C@@H]21)[C@@H](C)O)C(C)C)[C@@H](C)O)C(=O)O [presenilin-2] (Biotin-STDNLVRPFMDTLASHQLYI-OH; C-terminus assumed)
Classification [1]: 1 (A450 nm 0-1)

CC[C@H](C)[C@H](NC(=O)[C@H](Cc1c[nH]cn1)NC(=O)[C@H](C)NC(=O)[C@H](C)NC(=O)[C@H](CO)NC(=O)[C@@H]1CCCN1C(=O)[C@H](CCCNC(=N)N)NC(=O)[C@H](CC(=O)O)NC(=O)[C@H](CCCCN)NC(=O)[C@@H]1CCCN1C(=O)[C@H](CC(=O)O)NC(=O)[C@H](CCC(=O)O)NC(=O)CCCC[C@@H]1SC[C@@H]2NC(=O)N[C@@H]21)C(=O)N[C@H](C(=O)N[C@@H](CCC(=O)O)C(=O)N[C@@H](C)C(=O)N[C@@H](CC(C)C)C(=O)N[C@@H](CCC(=O)O)C(=O)N[C@H](C(=O)N[C@@H](CC(=O)O)C(=O)N[C@H](C(=O)O)C(C)C)[C@@H](C)O)C(C)C [PDZ-binding kinase (PBK)] (Biotin-EDPKDRPSAAHIVEALETDV-OH; C-terminus assumed)
Classification [2]: 1 (A450 nm 0-1)

CC(C)C[C@H](NC(=O)[C@H](C)NC(=O)[C@@H](NC(=O)[C@H](CCC(=O)O)NC(=O)[C@H](CCCNC(=N)N)NC(=O)[C@H](CCCNC(=N)N)NC(=O)CNC(=O)[C@H](CCC(N)=O)NC(=O)[C@H](CC(C)C)NC(=O)[C@H](CCCNC(=N)N)NC(=O)CNC(=O)CNC(=O)[C@H](CCCNC(=N)N)NC(=O)[C@H](C)NC(=O)[C@H](CO)NC(=O)[C@H](CCCNC(=N)N)NC(=O)CNC(=O)CNC(=O)[C@H](C)NC(=O)[C@H](C)NC(=O)CCCC[C@@H]1SC[C@@H]2NC(=O)N[C@@H]21)[C@@H](C)O)C(=O)O [HPV E6 33 (modified)] (Biotin-AAGGRSARGGRLQGRRETAL-OH; C-terminus assumed)
Classification ([3]; PDZ EBP50, PDZ Domain 1): 2 (A450 nm 1-2)
Classification ([3]; PDZ EBP50, PDZ Domain 2): 2 (A450 nm 1-2)
Classification [4]: 2 (A450 nm 1-2)

CC(C)C[C@H](NC(=O)[C@H](CC(C)C)NC(=O)[C@@H](NC(=O)[C@H](CC(=O)O)NC(=O)CCCC[C@@H]1SC[C@@H]2NC(=O)N[C@@H]21)[C@@H](C)O)C(=O)N[C@@H](CC(C)C)C(=O)N[C@H](C(=O)N[C@@H](CCC(=O)O)C(=O)N[C@@H](CC(N)=O)C(=O)N[C@@H](CCC(=O)O)C(=O)NCC(=O)N[C@@H](CC(=O)O)C(=O)N[C@@H](CCCCN)C(=O)N[C@H](C(=O)N[C@@H](CCC(=O)O)C(=O)N[C@@H](CCC(=O)O)C(=O)N[C@@H](CCC(N)=O)C(=O)N[C@H](C(=O)N[C@@H](CO)C(=O)N[C@@H](Cc1ccc(O)cc1)C(=O)N[C@H](C(=O)O)C(C)C)C(C)C)[C@@H](C)O)[C@@H](C)O [5H2B_HUMAN] (Biotin-DTLLLTENEGDKTEEQVSYV-OH; C-terminus assumed)
Classification [5]: 1 (A450 nm 0-1)

VHDAESSDEDGYDWGPATDL (Biotin-VHDAESSDEDGYDWGPATDL) [zona occludens 3 (ZO-3)]
Classification [6]: 2 (A450 nm 1-2)

QATSRNGHSARQHVVADTEL (Biotin-QATSRNGHSARQHVVADTEL) [CD34]
Classification [6]: 1 (A450 nm 0-1)

A2AA_HUMAN (modified) (Biotin-HDFRRAFKKILARGDRKRIV; not fully specified)
Classification [2]: 2 (A450 nm 1-2)

CC[C@H](C)[C@H](NC(=O)[C@H](CO)NC(=O)[C@H](CCC(=O)O)NC(=O)[C@H](Cc1ccc(O)cc1)NC(=O)[C@H](CC(=O)O)NC(=O)[C@H](CC(N)=O)NC(=O)[C@H](CCC(=O)O)NC(=O)[C@H](CCCCN)NC(=O)CCCC[C@@H]1SC[C@@H]2NC(=O)N[C@@H]21)C(=O)N[C@@H](CO)C(=O)N[C@@H](CC(=O)O)C(=O)N[C@@H](CC(C)C)C(=O)N[C@@H](CCC(N)=O)C(=O)N[C@@H](CCC(N)=O)C(=O)NCC(=O)N[C@@H](CCCNC(=N)N)C(=O)N[C@@H](CC(=O)O)C(=O)N[C@H](C(=O)N[C@H](C(=O)N[C@@H](CCCNC(=N)N)C(=O)N[C@@H](CC(C)C)C(=O)O)[C@@H](C)O)[C@@H](C)CC [PAG] (Biotin-KENDYESISDLQQGRDITRL-OH; C-terminus assumed)
Classification [5]: 1 (A450 nm 0-1)
Classification [4]: 2 (A450 nm 1-2)

PPATPSPRLALPAHHNATRL (Biotin-PPATPSPRLALPAHHNATRL) [Na+/Pi cotransporter 2]
Classification ([3]; PDZ EBP50, PDZ Domain 1): 5 (A450 nm of 4 more than 2× repeated)
Classification ([3]; PDZ EBP50, PDZ Domain 2): 2 (A450 nm 1-2)
Classification [5]: 1 (A450 nm 0-1)
Classification [4]: 5 (A450 nm of 4 more than 2× repeated)

CC[C@H](C)[C@H](NC(=O)CNC(=O)[C@H](CO)NC(=O)[C@H](Cc1ccccc1)NC(=O)[C@@H](NC(=O)[C@H](CS)NC(=O)CNC(=O)CNC(=O)[C@H](C)NC(=O)[C@@H]1CCCN1C(=O)[C@@H](NC(=O)[C@@H]1CCCN1C(=O)CCCC[C@@H]1SC[C@@H]2NC(=O)N[C@@H]21)[C@@H](C)CC)[C@@H](C)O)C(=O)N[C@@H](Cc1ccccc1)C(=O)N1CCC[C@H]1C(=O)N[C@H](C(=O)N[C@@H](CC(C)C)C(=O)N[C@H](C(=O)N[C@@H](CO)C(=O)N1CCC[C@H]1C(=O)N[C@@H](CC(C)C)C(=O)O)[C@@H](C)O)[C@@H](C)O [KIA 1481] (Biotin-PIPAGGCTFSGIFPTLTSPL-OH; C-terminus assumed)
Classification ([3]; PDZ EBP50, PDZ Domain 1): 2 (A450 nm 1-2)
Classification ([3]; PDZ EBP50, PDZ Domain 2): 2 (A450 nm 1-2)
Classification [4]: 3 (A450 nm 2-3)

LASKSAEEGKQIPDSLSTDL (Biotin-LASKSAEEGKQIPDSLSTDL) [Dock2]
Classification ([3]; PDZ EBP50, PDZ Domain 1): 1 (A450 nm 0-1)
Classification ([3]; PDZ EBP50, PDZ Domain 2): 2 (A450 nm 1-2)
Classification [4]: 1 (A450 nm 0-1)
Classification [6]: 1 (A450 nm 0-1)

CC[C@H](C)[C@H](NC(=O)[C@H](CCC(N)=O)NC(=O)[C@@H](NC(=O)[C@H](Cc1c[nH]cn1)NC(=O)[C@H](CCC(N)=O)NC(=O)[C@H](CC(=O)O)NC(=O)[C@H](CCC(=O)O)NC(=O)[C@H](CC(=O)O)NC(=O)[C@H](Cc1ccccc1)NC(=O)[C@@H]1CCCN1C(=O)[C@H](CCC(=O)O)NC(=O)[C@H](CC(N)=O)NC(=O)[C@H](CCC(=O)O)NC(=O)[C@@H]1CCCN1C(=O)[C@H](CC(=O)O)NC(=O)[C@H](CO)NC(=O)[C@H](CC(=O)O)NC(=O)CCCC[C@@H]1SC[C@@H]2NC(=O)N[C@@H]21)[C@@H](C)O)C(=O)N[C@H](C(=O)N[C@@H](CCCCN)C(=O)N[C@H](C(=O)O)C(C)C)[C@@H](C)O [PTEN]
Classification [5]: 1 (A450 nm 0-1)
Classification [2]: 1 (A450 nm 0-1)

GPVPGEPAKPKTSAHHATFV (Biotin-GPVPGEPAKPKTSAHHATFV)
Classification [5]: 1 (A450 nm 0-1)

PYSELNYETSHYPASPDSWV (Biotin-PYSELNYETSHYPASPDSWV) [catenin - delta 2]
Classification [2]: 1 (A450 nm 0-1)
Classification [6]: 2 (A450 nm 1-2)
